Source: US20160304615A1

How the values were obtained:
EGFRvIII-mFc (human) [1] = test: SPR 37C, mAb-capture
EGFRvIII-mFc (human) [2] = test: SPR 37C, receptor-capture
EGFR-mFc (human) = test: SPR 37C, receptor-capture
[3] = biological target: full-length hEGFRvIII on cells (human) (UniProt P00533); test: FACS, HEK293/EGFRvIII cells, PE secondary antibody
EGFRvIII-mmh (human) [4] = biological target: EGFRvIII-mmh (human) (UniProt P00533); test: SPR 37C, mAb-capture
[5] = biological target: wild-type human EGFR on cells (human) (UniProt P00533); test: FACS, A431 cells, PE secondary antibody
EGFRvIII-mmh (human) [6] = biological target: EGFRvIII-mmh (human) (UniProt P00533); test: SPR coinjection; competitor (first antibody): Control III
EGFRvIII-mmh (human) [7] = biological target: EGFRvIII-mmh (human) (UniProt P00533); test: SPR coinjection; competitor (first antibody): H1H1863N2(Fuc-)
EGFRvIII-mmh (human) [8] = biological target: EGFRvIII-mmh (human) (UniProt P00533); test: SPR coinjection; competitor (first antibody): Control II
EGFRvIII-mmh (human) [9] = biological target: EGFRvIII-mmh (human) (UniProt P00533); test: SPR coinjection; competitor (first antibody): Control I
[10] = biological target: wild-type human EGFR on cells (human) (UniProt P00533); test: FACS, A431 cells, directly labeled antibody
[11] = biological target: full-length hEGFRvIII on cells (human) (UniProt P00533); test: FACS, HEK293/EGFRvIII cells, directly labeled antibody
[12] = biological target: full-length hEGFRvIII on cells (human) (UniProt P00533); test: cell-based or functional assay
EGFRvIII-mmh (human) [13] = biological target: EGFRvIII-mmh (human) (UniProt P00533); test: ELISA
EGFR-mmh (human) = EGFR-mmh (human) (UniProt P00533); test: ELISA
EGFRvIII-mmh (human) [14] = biological target: EGFRvIII-mmh (human) (UniProt P00533); test: SPR, captured hEGFRvIII-mmh; no first antibody
[15] = biological target: EGFRvIII junctional peptide (human); test: ELISA
[16] = biological target: N-terminal biotin-labeled EGFRvIII junctional peptide (human); test: ELISA
[17] = biological target: C-terminal biotin-labeled EGFRvIII junctional peptide (human); test: ELISA

Chain of Control III: Humanized anti-EGFRvIII antibody (hIgG1) with the variable domains of the "hu806" antibody of US 2010/0056762 (VH): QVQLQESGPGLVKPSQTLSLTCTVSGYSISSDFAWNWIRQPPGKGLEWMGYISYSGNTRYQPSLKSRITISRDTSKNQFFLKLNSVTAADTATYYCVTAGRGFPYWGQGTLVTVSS
Chain of Control III: Humanized anti-EGFRvIII antibody (hIgG1) with the variable domains of the "hu806" antibody of US 2010/0056762 (VL): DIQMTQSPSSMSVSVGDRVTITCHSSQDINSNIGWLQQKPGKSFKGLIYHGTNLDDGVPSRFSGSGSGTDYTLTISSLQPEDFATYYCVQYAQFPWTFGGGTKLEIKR

Substance | Kd (EGFRvIII-mFc (human) [1]) [nM] | T½ (EGFRvIII-mFc (human) [1]) [min] | Kd (EGFRvIII-mFc (human) [2]) [nM] | T½ (EGFRvIII-mFc (human) [2]) [h] | Kd (EGFR-mFc (human)) [nM] | T½ (EGFR-mFc (human)) [min] | HEK293/EGFRvIII MFI [3] [MFI] | Ratio (EGFRvIII MFI/parental MFI) [3] | Kd (EGFRvIII-mmh (human) [4]) [nM] | T½ (EGFRvIII-mmh (human) [4]) [min] | koff (EGFRvIII-mmh (human) [4]) [s⁻¹] | kon (EGFRvIII-mmh (human) [4]) [M⁻¹ s⁻¹] | koff (EGFRvIII-mFc (human) [1]) [s⁻¹] | kon (EGFRvIII-mFc (human) [1]) [M⁻¹ s⁻¹] | A431 MFI [5] [MFI] | Fold Above Background [5] [fold] | Second Antibody Binding Response (RU) (EGFRvIII-mmh (human) [6]) | Second Antibody Binding Response (RU) (EGFRvIII-mmh (human) [7]) | Second Antibody Binding Response (RU) (EGFRvIII-mmh (human) [8]) | Second Antibody Binding Response (RU) (EGFRvIII-mmh (human) [9]) | other results
Control III: Humanized anti-EGFRvIII antibody (hIgG1) with the variable domains of the "hu806" antibody of US 2010/0056762 | 1.18 | 39 | 0.00067 | 192 | 0.215 | 187 | – | – | – | – | – | – | – | – | – | – | – | – | – | – | –
Control V: Human anti-EGFRvIII antibody (IgG1) with the variable domains of the "131" antibody of U.S. Pat. No. 7,736,644 B2 | 1.95 | 31 | – | – | – | – | 997000 | 85 | 82 | 1 | 0.0159 | 194000 | 0.000371 | 191000 | 4240 | 3 | – | – | – | – | –
Control II: Chimeric anti-EGFRvIII antibody (hIgG1) with the variable domains of the "ch806" antibody of U.S. Pat. No. 7,589,180 | 2.02 | 28 | 0.059 | 2.63 | 0.329 | 79 | 313000 | 308 | 150 | 2 | 0.00733 | 49000 | 0.000408 | 202000 | 5580 | 3.9 | 13 | 191 | 6 | 258 | A431 MFI [10]: 15700 MFI; Fold Above Background [10]: 2.3 fold; HEK293/EGFRvIII MFI [11]: 313000 MFI; Ratio (EGFRvIII MFI/parental MFI) [11]: 87.4; koff (EGFRvIII-mFc (human) [2]): 7.31e-05 s⁻¹; kon (EGFRvIII-mFc (human) [2]): 1.25e+06 M⁻¹ s⁻¹; koff (EGFR-mFc (human)): 0.000146 s⁻¹; kon (EGFR-mFc (human)): 444000 M⁻¹ s⁻¹; Fluorescent Intensity of vesicles 4° C., Mean [12]: 20300; Fluorescent Intensity of vesicles 37° C., Mean [12]: 615000; EC50 (EGFRvIII-mmh (human) [13]): 0.0057 nM; EC50 (EGFR-mmh (human)): 0.0095 nM; Second Antibody Binding Response (RU) (EGFRvIII-mmh (human) [14]): 247 RU
Control I: Human anti-EGFRvIII antibody (IgG1) with the variable domains of the "13.1.2" antibody of U.S. Pat. No. 7,736,644 | 103 | 1.6 | 9.06 | 0.0483 | – | – | 272000 | – | 1190 | 0.1 | – | – | – | – | 1450 | – | 254 | 253 | 252 | 5 | A431 MFI [10]: 9650 MFI; HEK293/EGFRvIII MFI [11]: 258000 MFI; Fluorescent Intensity of vesicles 4° C., Mean [12]: 22000; Fluorescent Intensity of vesicles 37° C., Mean [12]: 264000; EC50 (EGFRvIII-mmh (human) [13]): 0.0094 nM; EC50 [15]: 0.118 nM; EC50 [16]: 0.0106 nM; EC50 [17]: 0.0153 nM; Second Antibody Binding Response (RU) (EGFRvIII-mmh (human) [14]): 234 RU
